From the supplement of paper PMC11136658

Test system: peptide library, one residue held at a place counted from the Y acceptor
Experiment: relative phosphorylation of the sub-library (ratio to the mean residue at this position); higher = residue favoured
In short: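 Peptide library mixtures, biotinylated and centred on Tyr, each fixed one residue at one position from −5 to +5. Purified recombinant kinases were incubated with them for 90 min in 384-well plates alongside 50 μM ATP and γ-32P-ATP, and the captured, rinsed peptides on streptavidin membranes were measured by phosphorimaging and ImageQuant. Normalization divided each position's intensities by the sum of its 18 randomized residues (16 for the Ser/Thr-free library) and multiplied by that number, so that values give phosphorylation relative to the mean randomized residue.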

Chain of MUSK, construct: aa529-end, human (O15146 529-869, looked up): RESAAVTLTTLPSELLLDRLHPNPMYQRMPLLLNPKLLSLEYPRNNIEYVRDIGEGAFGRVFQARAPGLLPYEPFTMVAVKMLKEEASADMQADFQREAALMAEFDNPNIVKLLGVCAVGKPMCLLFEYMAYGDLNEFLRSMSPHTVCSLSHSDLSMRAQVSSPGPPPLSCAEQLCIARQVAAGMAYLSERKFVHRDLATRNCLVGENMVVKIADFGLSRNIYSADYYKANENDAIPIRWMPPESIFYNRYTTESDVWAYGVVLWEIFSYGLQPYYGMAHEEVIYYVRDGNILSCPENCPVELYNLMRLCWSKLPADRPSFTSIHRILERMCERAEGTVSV

MST1R (from UniProt Q04912)
relative phosphorylation
Conditions	at +1	at +2	at +3	at +4	at +5	at -1	at -2	at -3	at -4	at -5
A fixed	0.871	0.845	0.68	0.963	1.06	0.744	0.976	0.932	1.03	0.978
D fixed	0.356	0.803	0.406	0.696	0.865	1.38	1.03	1.2	1.02	0.894
E fixed	0.55	0.767	0.281	0.622	0.874	1.01	0.864	1.06	0.966	0.851
F fixed	1.62	0.938	1.28	1.1	0.582	1.06	0.794	0.996	1.1	1.1
G fixed	0.645	0.821	0.766	1.17	1.25	0.665	1.38	1.21	1.25	1.13
H fixed	1.3	0.906	0.968	1.11	1.03	1.12	0.938	0.991	0.847	0.989
I fixed	1.51	1	2.14	0.923	0.473	1.36	0.957	0.801	0.85	0.932
K fixed	0.618	1.14	0.612	0.921	1.66	0.806	1.04	1	1.08	1.13
L fixed	1.32	1.15	1.67	0.924	0.626	1.29	0.903	0.937	1.04	1.07
M fixed	1.15	0.99	1.32	1.1	0.715	0.904	0.685	0.845	0.941	0.974
N fixed	0.594	1.13	0.492	0.82	1.23	1.25	0.978	1.01	0.796	0.864
P fixed	0.672	0.967	1.17	1.03	1.57	0.768	1.31	1.09	1.16	1.07
Q fixed	1.04	0.996	0.577	1.04	1.16	0.977	1.07	1.01	0.996	0.946
R fixed	0.922	1.3	0.862	1.34	1.75	0.757	1.28	1.18	1.09	1.18
S fixed	0.901	0.95	0.712	0.897	1.25	0.777	1.23	1.2	0.87	0.974
T fixed	0.876	0.792	0.623	0.85	1.17	0.899	0.973	0.91	0.821	0.884
V fixed	1.46	1.04	1.36	0.901	0.579	1.15	1.02	0.728	0.89	0.939
W fixed	1.36	1.2	1.41	1.34	0.575	0.762	0.77	0.997	0.953	0.953
pThr fixed	0.564	0.981	0.277	0.414	0.638	1.16	1.02	0.95	0.758	0.795
pTyr fixed	1.73	1.79	0.651	1.11	0.728	2.14	1.1	1.13	1.04	0.922

MUSK, construct: aa529-end, human (from UniProt O15146)
relative phosphorylation
Conditions	at +1	at +2	at +3	at +4	at +5	at -1	at -2	at -3	at -4	at -5
A fixed	1.21	0.711	0.689	0.799	0.969	0.559	0.817	0.963	1.25	1.09
D fixed	0.341	0.179	0.233	0.665	0.832	0.932	0.856	1.09	0.763	0.981
E fixed	0.619	0.251	0.156	0.481	0.784	2.14	1.44	1	0.919	0.766
F fixed	1.9	1.59	1.49	1.06	1.01	1.33	0.962	1.16	1.38	1.33
G fixed	0.835	0.386	0.886	0.94	1.08	0.401	1.06	0.981	1.14	1.06
H fixed	1.68	0.852	0.868	1.2	1.07	1.51	1.14	1.04	0.977	0.891
I fixed	1.31	1.54	1.59	0.808	0.781	1.5	1.02	0.87	1.02	0.946
K fixed	0.317	1.58	0.99	1.53	1.15	0.248	0.779	0.855	0.822	0.916
L fixed	0.926	1.12	1.09	0.907	1.02	1.62	1.09	1.04	1.13	1.17
M fixed	1.58	0.918	1.24	1.1	0.964	0.939	0.914	1.15	0.996	1.13
N fixed	0.41	0.774	0.62	0.848	0.935	2.14	1.35	1.09	0.877	1.04
P fixed	0.151	0.654	1.2	0.974	1.04	0.476	0.672	0.865	1.09	1.01
Q fixed	0.768	0.847	0.48	1.11	0.786	0.782	1.04	0.881	1.06	1.11
R fixed	0.541	2.19	2.06	1.57	1.66	0.255	0.976	0.866	0.972	0.892
S fixed	0.58	0.819	0.591	1.04	0.858	0.437	1.05	1.09	0.721	0.804
T fixed	0.563	0.862	0.843	0.771	0.987	0.465	1.03	0.936	0.627	0.663
V fixed	1.55	1.69	1.48	0.86	0.836	1.19	0.921	0.874	0.881	0.962
W fixed	2.72	1.05	1.49	1.36	1.24	1.06	0.892	1.25	1.39	1.25
pThr fixed	1.15	0.475	0.215	0.619	0.435	1.32	0.741	0.718	0.587	0.773
pTyr fixed	11.8	1.11	0.592	0.73	0.832	5.58	1.07	1.32	0.963	1.02
